Our source for the Kd values is patent publication US20190071480A1 (Biogen, published 2019).

Assay [1] has as its target T1, extracellular domain of activin receptor type IIB (ActRIIBecd), biotinylated (Homo sapiens (Human), UniProt Q13705 27-117, amino-biotinylated with amine-PEG3-Biotin).
T1 construct: immobilised on a streptavidin-coated sensor chip; also called biotinylated ActRIIBecd; extracellular domain of ActRIIB
T1 sequence: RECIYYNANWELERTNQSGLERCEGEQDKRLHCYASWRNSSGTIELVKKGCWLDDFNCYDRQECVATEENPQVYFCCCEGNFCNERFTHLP
Put plainly: BIAcore SPR as Example 5 (method not restated); SD ±1.62 nM. (In SPR one partner is held on a chip, and binding of the other changes the refractive index at the surface.)

The target in assay [2] is T1, extracellular domain of activin …. Kind of assay: Mean KD column of Table 5; method not restated (BIAcore as Example 5); species also listed in Table 4. The method, then:
(§1) Biosensor experiments. In one embodiment, experiments were performed on a BIAcore™ T100/T200 instrument (Pharmacia Biosensor AB) in the multichannel mode (serial flow path involving flow cells 1+2+3+4). Flow rate was 10 μl/min; temperature was 25° C.; and data were recorded at 2.5 points/s. All four segments of a sensor chip CMS were coated with streptavidin (Sigma) to a density of 2000 pg/mm² (2000 resonance units) by the aminocoupling procedure. ActRIIBecd (10 mg) and amine-PEG3-Biotin (10 mg, Pierce, Rockford, Ill.) were dissolved in 200 μl H₂O and 10 mg NaCNBH₃ was added to prepare biotinylated ActRIIBecd. The reaction mixture was heated at 70° C. for 24 h, after that a further 10 mg NaCNBH₃ was added and the reaction was heated at 70° C. for another 24 h. After cooling to room temperature, the mixture was desalted with the spin column (3,000 molecular weight cut off (MWCO)). Biotinylated ActRIIBecd was collected, freeze-dried and used for streptavidin (SA) chip preparation. Amino-biotinylated ActRIIBecd was then immobilized independently on flow cells 2-4 for 10 minutes at a flow rate of 5 μL/min and a concentration of 20 μM in 10 mM sodium acetate, pH 4.0, at a density of 50-250 resonance units (RU). The stored polypeptides were dissolved in glycine buffer (2.5 g of glycine, 0.5 g of sucrose, 370 mg of L-glutamate, 10 mg of sodium chloride, and 10 mg of Tween 80 in 100 mL water, pH 4.5) to prepare 10 mg/mL solution and then diluted with previous glycine buffer to prepare analytes with various concentration. Sensograms were recorded during flow of the analyte (the ActRIIBecd-associated polypeptides (i.e., domains) as previously described) first through flow cell 1 (control) then through flow cell 2 (biotinylated ActRIIBecd). The sensogram obtained for flow cell 1 was subtracted from the sensogram obtained for flow cell 2. The sensograms obtained at 1.11, 3.33, 10, 30, and 90 nM analyte were evaluated for equilibrium binding, association rate, and dissociation rate by using the programs supplied with the instrument (BIA evaluation 2.1; Software Handbook. 1995; Pharmacia Biosensor AB).

Assay [3] has the same target. Put plainly: BIAcore SPR as Example 5 (method not restated); SD ±2.62 nM. As to the method: as §1, with “Biotinylated ActRIIBecd was collected, freeze-dried and used for streptavidin (SA) chip preparation. Amino-biotinylated ActRIIBecd was then immobilized independently on flow cells 2-4 for 10 minutes at a flow rate of 5 μL/min and a concentration of 20 μM in 10 mM sodium acetate, pH 4.0, at a density of 50-250 resonance units (RU). The stored polypeptides were dissolved in glycine buffer (2.5 g of glycine, 0.5 g of sucrose, 370 mg of L-glutamate, 10 mg of sodium chloride, and 10 mg of Tween 80 in 100 mL water, pH 4.5) to prepare 10 mg/mL solution and then diluted with previous glycine buffer to prepare analytes with various concentration.” left out, “The sensogram obtained for flow cell 1 was subtracted from the sensogram obtained for flow cell 2.” left out

Assay [4] has the same target. Put plainly: BIAcore SPR as Example 5 (method not restated); SD ±1.79 nM. The method, then:
as §1, with “Biotinylated ActRIIBecd was collected, freeze-dried and used for streptavidin (SA) chip preparation. Amino-biotinylated ActRIIBecd was then immobilized independently on flow cells 2-4 for 10 minutes at a flow rate of 5 μL/min and a concentration of 20 μM in 10 mM sodium acetate, pH 4.0, at a density of 50-250 resonance units (RU). The stored polypeptides were dissolved in glycine buffer (2.5 g of glycine, 0.5 g of sucrose, 370 mg of L-glutamate, 10 mg of sodium chloride, and 10 mg of Tween 80 in 100 mL water, pH 4.5) to prepare 10 mg/mL solution and then diluted with previous glycine buffer to prepare analytes with various concentration.” left out, “The sensogram obtained for flow cell 1 was subtracted from the sensogram obtained for flow cell 2.” left out

For assay [5] the target is unchanged. Put plainly: BIAcore SPR, biotinylated ActRIIBecd on chip; SD ±13.51 nM. The method, then:
as §1, with “Biotinylated ActRIIBecd was collected, freeze-dried and used for streptavidin (SA) chip preparation. Amino-biotinylated ActRIIBecd was then immobilized independently on flow cells 2-4 for 10 minutes at a flow rate of 5 μL/min and a concentration of 20 μM in 10 mM sodium acetate, pH 4.0, at a density of 50-250 resonance units (RU). The stored polypeptides were dissolved in glycine buffer (2.5 g of glycine, 0.5 g of sucrose, 370 mg of L-glutamate, 10 mg of sodium chloride, and 10 mg of Tween 80 in 100 mL water, pH 4.5) to prepare 10 mg/mL solution and then diluted with previous glycine buffer to prepare analytes with various concentration.” left out, “The sensogram obtained for flow cell 1 was subtracted from the sensogram obtained for flow cell 2.” left out

The target is the same in assay [6]. Kind of assay: BIAcore SPR, biotinylated ActRIIBecd on chip; SD ±16.41 nM. The method, then: as §1, with “Biotinylated ActRIIBecd was collected, freeze-dried and used for streptavidin (SA) chip preparation. Amino-biotinylated ActRIIBecd was then immobilized independently on flow cells 2-4 for 10 minutes at a flow rate of 5 μL/min and a concentration of 20 μM in 10 mM sodium acetate, pH 4.0, at a density of 50-250 resonance units (RU). The stored polypeptides were dissolved in glycine buffer (2.5 g of glycine, 0.5 g of sucrose, 370 mg of L-glutamate, 10 mg of sodium chloride, and 10 mg of Tween 80 in 100 mL water, pH 4.5) to prepare 10 mg/mL solution and then diluted with previous glycine buffer to prepare analytes with various concentration.” left out, “The sensogram obtained for flow cell 1 was subtracted from the sensogram obtained for flow cell 2.” left out

For assay [7] the target is unchanged. Kind of assay: BIAcore SPR, biotinylated ActRIIBecd on chip; SD ±12.12 nM. As to the method:
as §1, with “Biotinylated ActRIIBecd was collected, freeze-dried and used for streptavidin (SA) chip preparation. Amino-biotinylated ActRIIBecd was then immobilized independently on flow cells 2-4 for 10 minutes at a flow rate of 5 μL/min and a concentration of 20 μM in 10 mM sodium acetate, pH 4.0, at a density of 50-250 resonance units (RU). The stored polypeptides were dissolved in glycine buffer (2.5 g of glycine, 0.5 g of sucrose, 370 mg of L-glutamate, 10 mg of sodium chloride, and 10 mg of Tween 80 in 100 mL water, pH 4.5) to prepare 10 mg/mL solution and then diluted with previous glycine buffer to prepare analytes with various concentration.” left out, “The sensogram obtained for flow cell 1 was subtracted from the sensogram obtained for flow cell 2.” left out

Assay [8] shares this target. Kind of assay: BIAcore SPR, biotinylated ActRIIBecd on chip; SD ±23.17 nM. The method, then: as §1, with “Biotinylated ActRIIBecd was collected, freeze-dried and used for streptavidin (SA) chip preparation. Amino-biotinylated ActRIIBecd was then immobilized independently on flow cells 2-4 for 10 minutes at a flow rate of 5 μL/min and a concentration of 20 μM in 10 mM sodium acetate, pH 4.0, at a density of 50-250 resonance units (RU). The stored polypeptides were dissolved in glycine buffer (2.5 g of glycine, 0.5 g of sucrose, 370 mg of L-glutamate, 10 mg of sodium chloride, and 10 mg of Tween 80 in 100 mL water, pH 4.5) to prepare 10 mg/mL solution and then diluted with previous glycine buffer to prepare analytes with various concentration.” left out, “The sensogram obtained for flow cell 1 was subtracted from the sensogram obtained for flow cell 2.” left out

For assay [9] the target is unchanged. Kind of assay: BIAcore SPR as Example 5 (method not restated); SD ±3.12 nM. The method, then:
as §1, with “Biotinylated ActRIIBecd was collected, freeze-dried and used for streptavidin (SA) chip preparation. Amino-biotinylated ActRIIBecd was then immobilized independently on flow cells 2-4 for 10 minutes at a flow rate of 5 μL/min and a concentration of 20 μM in 10 mM sodium acetate, pH 4.0, at a density of 50-250 resonance units (RU). The stored polypeptides were dissolved in glycine buffer (2.5 g of glycine, 0.5 g of sucrose, 370 mg of L-glutamate, 10 mg of sodium chloride, and 10 mg of Tween 80 in 100 mL water, pH 4.5) to prepare 10 mg/mL solution and then diluted with previous glycine buffer to prepare analytes with various concentration.” left out, “The sensogram obtained for flow cell 1 was subtracted from the sensogram obtained for flow cell 2.” left out

Bridges are numbered along the chain shown (N, C = ends).

B1: SEQ ID NO: 218, cysteine pairs C15-C15^b, C29-C62^a, C30-C64^a (designed binder)
chain: AQAKHKQRKRLKSSCKRHPLYNSKIPKACCVPTELSAISMLYLDENEKVVLKNYQDMVVEGCGCR
modifications: disulfide 29-62, 30-64; also: homodimer via intermolecular C15-C15 disulfide
notes: homodimer by intermolecular disulfide
Broadly, the Kd is the equilibrium constant for the complex coming apart. Regarding B1, the dissociation constant Kd in [1] and in assay [2] was 16.2 nM throughout.

B2: SEQ ID NO: 218, cysteine pairs C15-C30^a (designed binder)
chain: B1 chain
modifications: disulfide 15-30
For B2, the Kd in assay [3] and in [2] was 40.9 nM throughout.

B3: SEQ ID NO: 218, cysteine pairs C15-C15^b, C29-C64^a, C30-C62^a (designed binder)
chain: B1 chain
modifications: disulfide 29-64, 30-62; also: homodimer via intermolecular C15-C15 disulfide
notes: as for B1
For the molecule B3, the Kd in assay [4] and in [2] was 18.4 nM each time.

B4: Recombinant polypeptide of clones 15 + 10 (designed binder)
chain: VDFSDVGWNDWIVAPPGYHAFYCHGECPFPLADHLNSTNHAIVQTLVNSVAQAKHKQRKRLKSSCKRHPLY
In assay [5], B4 returned a Kd of 29.7 nM.

B5: Recombinant polypeptide of clones 21 + 15 + 10 (designed binder)
chain: NSKIPKACCVPTELSAISMLYLDENEKVVLKNYQDMVVEGCGCRVDFSDVGWNDWIVAPPGYHAFYCHGECPFPLADHLNSTNHAIVQTLVNSVAQAKHKQRKRLKSSCKRHPLY
On to B5, for which the Kd in assay [5] turned out to be 14.2 nM.

B6: Clone No. 30 domain (ActRIIBecd-associated polypeptide) (peptide)
chain: TALDGTRGAQGSGGGGGGGGGGGGGGGGGGGGAGRGHGRRGRSRCSRKSLHVDFKELG
Take B6: the Kd in assay [6] was found to be 61.7 nM.

Molecule AQAKHKQRKRLKSSCKRHPLY [Clone No. 10 domain (ActRIIBecd-associated polypeptide)] returned a Kd in assay [7] of 36.4 nM.

Turning to AQAKHKGRKRLKSSCKRHPLY [Clone No. 11 domain (ActRIIBecd-associated polypeptide)], in [8], the Kd is 63.7 nM.

B7: SEQ ID NO: 206, cysteine pairs C67-C71^a, C8-C41^a, C9-C43^a (designed binder)
chain: NSKIPKACCVPTELSAISMLYLDENEKVVLKNYQDMVVEGCGCRVDFSDVGWNDWIVAPPGYHAFYCHGECPFPLADHLNSTNHAIVQTLVNSV
modifications: disulfides C67-C71 (intra), C8-C41 (intra), C9-C43 (intra)
As to B7, the dissociation constant (Kd) in [9] and in [2] was 15.5 nM each time.
